One block for each binder: values may come before it.
Experiments:
[1] = target: EGF/tEGFR: purified tail-truncated EGFR (aa 25–1022) with EGF, solubilized in detergent or reconstituted in nanodiscs
[2] = target: EGF/tEGFR: purified tail-truncated EGFR (aa 25–1022) with EGF, solubilized in detergent or reconstituted in nanodiscs; remark: listed apart in the source

IC50 of inhibition of tEGFR kinase activity [1]: 0.74 µM
B1: His6-Mig6 segment 1+2 (aa 336–412) mutant Y394E (domain or fragment)
chain: KSLPSYLNGVMPPTQSFAPDPKYVSSKALQRQNSEGSASKVPCILPIIENGKKVSSTHEYLLPERPPYLDKYEKFFR

IC50 of inhibition of EGFR (tEGFR) kinase activity [2]: > 3 µM
B2: unligated GST-Mig6 (aa 336–391) (domain or fragment)
chain: KSLPSYLNGVMPPTQSFAPDPKYVSSKALQRQNSEGSASKVPCILPIIENGKKVPG

— publication PMC3830645
